Measurements taken from the supplement of paper PMC10065799, “High-throughput profiling of sequence recognition by tyrosine kinases and SH2 domains using bacterial peptide display” (eLife, 2023).

Columns and labels:
AncSZ = assay: phosphorylation enrichment, bacterial display (enrichment ratio); higher = better substrate or ligand; peptides without Tyr show the background
EPHB1 = EPHB1 (UniProt P54762); assay: as above
EPHB2 = EPHB2 (UniProt P29323); assay: as above
FGFR1 = FGFR1 (UniProt P11362); assay: as above
Chain of FGFR1 (P11362 whole entry, looked up): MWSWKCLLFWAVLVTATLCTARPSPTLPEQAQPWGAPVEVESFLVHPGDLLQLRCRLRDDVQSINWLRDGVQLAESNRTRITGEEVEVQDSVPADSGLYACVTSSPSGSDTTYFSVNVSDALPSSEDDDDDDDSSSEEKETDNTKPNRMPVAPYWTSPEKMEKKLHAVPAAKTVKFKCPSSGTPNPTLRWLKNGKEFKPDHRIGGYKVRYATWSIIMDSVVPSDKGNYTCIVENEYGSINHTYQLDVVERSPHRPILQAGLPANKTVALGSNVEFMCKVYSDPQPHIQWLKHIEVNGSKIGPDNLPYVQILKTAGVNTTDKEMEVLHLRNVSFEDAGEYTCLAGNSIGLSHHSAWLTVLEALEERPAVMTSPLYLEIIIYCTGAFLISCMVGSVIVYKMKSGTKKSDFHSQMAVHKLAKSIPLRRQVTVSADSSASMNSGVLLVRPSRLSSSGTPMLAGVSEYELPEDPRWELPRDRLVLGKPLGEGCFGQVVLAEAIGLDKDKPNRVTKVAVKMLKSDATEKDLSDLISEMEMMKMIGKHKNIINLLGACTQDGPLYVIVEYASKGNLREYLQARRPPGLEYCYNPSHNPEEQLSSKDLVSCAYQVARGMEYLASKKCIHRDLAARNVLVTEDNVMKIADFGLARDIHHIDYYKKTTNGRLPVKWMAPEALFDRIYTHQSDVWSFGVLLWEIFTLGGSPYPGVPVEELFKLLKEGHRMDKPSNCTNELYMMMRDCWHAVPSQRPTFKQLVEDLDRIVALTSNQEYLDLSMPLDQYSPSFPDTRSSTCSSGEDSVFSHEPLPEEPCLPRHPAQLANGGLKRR

FGFR3 = FGFR3 (UniProt P22607); assay: as above
Chain of FGFR3 (P22607 whole entry, looked up): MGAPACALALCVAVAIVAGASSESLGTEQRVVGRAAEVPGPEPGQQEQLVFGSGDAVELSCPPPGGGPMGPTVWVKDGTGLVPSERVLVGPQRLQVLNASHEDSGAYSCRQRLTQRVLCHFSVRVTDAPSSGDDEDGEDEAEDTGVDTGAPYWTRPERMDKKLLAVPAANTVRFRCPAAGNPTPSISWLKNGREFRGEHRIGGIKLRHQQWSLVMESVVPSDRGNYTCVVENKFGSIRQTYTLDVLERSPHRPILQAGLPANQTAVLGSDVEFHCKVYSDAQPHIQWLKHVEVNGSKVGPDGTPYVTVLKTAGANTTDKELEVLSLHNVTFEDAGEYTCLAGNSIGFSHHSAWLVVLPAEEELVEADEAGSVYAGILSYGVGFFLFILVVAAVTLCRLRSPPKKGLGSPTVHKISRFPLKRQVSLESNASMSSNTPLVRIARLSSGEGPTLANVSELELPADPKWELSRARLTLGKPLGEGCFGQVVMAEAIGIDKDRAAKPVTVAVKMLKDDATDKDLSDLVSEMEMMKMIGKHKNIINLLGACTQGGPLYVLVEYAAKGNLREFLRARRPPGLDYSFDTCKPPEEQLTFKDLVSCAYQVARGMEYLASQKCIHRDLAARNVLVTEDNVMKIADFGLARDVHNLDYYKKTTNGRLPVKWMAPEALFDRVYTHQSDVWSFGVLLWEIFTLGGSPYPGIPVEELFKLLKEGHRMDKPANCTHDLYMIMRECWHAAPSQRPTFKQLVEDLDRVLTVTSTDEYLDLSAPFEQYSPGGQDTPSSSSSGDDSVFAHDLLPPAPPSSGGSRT

Fer (mouse) = assay: as above
Fes = Fes (UniProt P07332); assay: as above
Chain of Fes (P07332 whole entry, looked up): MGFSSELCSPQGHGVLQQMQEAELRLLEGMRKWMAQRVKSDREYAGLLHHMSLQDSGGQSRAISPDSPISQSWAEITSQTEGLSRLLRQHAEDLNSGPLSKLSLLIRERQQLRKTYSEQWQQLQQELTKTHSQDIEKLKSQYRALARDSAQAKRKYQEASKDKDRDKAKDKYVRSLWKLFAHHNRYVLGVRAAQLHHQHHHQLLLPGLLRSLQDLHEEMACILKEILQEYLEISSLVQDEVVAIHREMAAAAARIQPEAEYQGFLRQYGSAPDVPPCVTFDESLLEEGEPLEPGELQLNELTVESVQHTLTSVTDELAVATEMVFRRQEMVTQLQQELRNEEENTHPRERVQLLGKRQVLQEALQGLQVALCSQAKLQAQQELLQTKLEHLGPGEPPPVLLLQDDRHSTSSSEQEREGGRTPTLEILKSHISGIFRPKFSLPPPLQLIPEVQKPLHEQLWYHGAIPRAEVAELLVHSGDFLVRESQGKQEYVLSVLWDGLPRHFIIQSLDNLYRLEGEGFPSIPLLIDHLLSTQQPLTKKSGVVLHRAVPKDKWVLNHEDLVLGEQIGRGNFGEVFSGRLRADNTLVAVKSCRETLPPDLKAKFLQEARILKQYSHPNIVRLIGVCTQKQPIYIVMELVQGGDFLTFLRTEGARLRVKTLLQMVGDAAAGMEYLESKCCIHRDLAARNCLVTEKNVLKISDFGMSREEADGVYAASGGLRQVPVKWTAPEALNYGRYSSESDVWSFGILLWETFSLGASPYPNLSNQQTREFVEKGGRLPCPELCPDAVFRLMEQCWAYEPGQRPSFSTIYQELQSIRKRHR

Fyn = Fyn (UniProt P06241); assay: as above
Hck = Hck (UniProt P08631); assay: as above
Chain of Hck (P08631 whole entry, looked up): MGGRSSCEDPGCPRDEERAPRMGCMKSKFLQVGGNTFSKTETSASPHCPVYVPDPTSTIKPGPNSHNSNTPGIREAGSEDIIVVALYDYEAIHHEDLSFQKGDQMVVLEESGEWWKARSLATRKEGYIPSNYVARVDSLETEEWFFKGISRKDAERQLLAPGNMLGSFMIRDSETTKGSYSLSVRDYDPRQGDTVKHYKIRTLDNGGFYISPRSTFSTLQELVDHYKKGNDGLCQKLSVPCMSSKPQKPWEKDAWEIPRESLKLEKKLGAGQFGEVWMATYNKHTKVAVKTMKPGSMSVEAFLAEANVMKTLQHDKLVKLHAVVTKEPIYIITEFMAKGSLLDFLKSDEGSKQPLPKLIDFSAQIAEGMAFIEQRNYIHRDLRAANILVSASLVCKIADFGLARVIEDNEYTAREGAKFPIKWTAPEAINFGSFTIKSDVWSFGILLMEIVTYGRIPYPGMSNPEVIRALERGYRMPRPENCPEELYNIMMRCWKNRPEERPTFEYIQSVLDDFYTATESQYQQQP

Jak2 = Jak2 (UniProt O60674); assay: as above
MERTK = MERTK (UniProt Q12866); assay: as above
Chain of MERTK (Q12866 whole entry, looked up): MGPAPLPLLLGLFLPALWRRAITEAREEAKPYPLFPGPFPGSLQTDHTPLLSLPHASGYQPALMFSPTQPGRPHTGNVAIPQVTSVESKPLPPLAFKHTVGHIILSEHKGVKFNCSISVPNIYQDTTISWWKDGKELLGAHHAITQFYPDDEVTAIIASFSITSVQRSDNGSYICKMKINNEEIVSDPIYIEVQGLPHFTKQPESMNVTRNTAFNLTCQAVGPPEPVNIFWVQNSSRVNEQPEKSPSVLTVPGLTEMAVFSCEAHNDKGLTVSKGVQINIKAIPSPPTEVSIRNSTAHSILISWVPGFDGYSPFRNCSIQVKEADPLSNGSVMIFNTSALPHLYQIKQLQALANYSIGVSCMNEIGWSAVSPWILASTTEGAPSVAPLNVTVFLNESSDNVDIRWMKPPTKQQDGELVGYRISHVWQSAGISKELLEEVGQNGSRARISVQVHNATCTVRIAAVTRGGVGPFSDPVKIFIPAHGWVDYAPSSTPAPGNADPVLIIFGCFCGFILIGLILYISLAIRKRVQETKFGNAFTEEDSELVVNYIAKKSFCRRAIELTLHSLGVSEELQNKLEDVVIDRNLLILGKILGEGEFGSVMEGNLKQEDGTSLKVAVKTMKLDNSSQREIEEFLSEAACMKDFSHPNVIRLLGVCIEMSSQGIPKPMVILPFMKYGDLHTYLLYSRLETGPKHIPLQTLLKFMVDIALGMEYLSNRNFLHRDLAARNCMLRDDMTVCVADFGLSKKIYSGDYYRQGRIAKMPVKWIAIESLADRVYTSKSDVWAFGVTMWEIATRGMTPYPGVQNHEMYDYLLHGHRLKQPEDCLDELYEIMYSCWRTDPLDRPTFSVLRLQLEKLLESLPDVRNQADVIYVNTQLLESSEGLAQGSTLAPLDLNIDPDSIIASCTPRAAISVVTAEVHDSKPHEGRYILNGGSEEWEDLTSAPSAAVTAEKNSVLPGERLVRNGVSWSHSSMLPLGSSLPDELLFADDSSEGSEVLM

c-Abl (mouse) = assay: as above
c-Src = assay: as above
Grb2 SH2 = Grb2 SH2 (UniProt P62993); assay: SH2 binding enrichment of the phosphorylated peptide, bacterial display (enrichment ratio); higher = better substrate or ligand; peptides without Tyr show the background
SHP2-C SH2 = assay: as above
c-Src SH2 = assay: as above
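For SH2 binding enrichment of the phosphorylated peptide, bacterial display in this document: peptide library displayed on the E. coli surface as eCPX fusions, selected cells deep-sequenced, score is each peptide's frequency after selection divided by its frequency in the input.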
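For phosphorylation enrichment, bacterial display in this document: 11-residue human phosphosite peptides and single-mutation variants displayed on the E. coli surface, counted by deep sequencing, each peptide's frequency after selection divided by its frequency in the unselected input library; frequency after pTyr selection over input frequency; kinase dosed for 20-30% of maximal phosphorylation in three min.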

Chain of EPHB2 (P29323 whole entry, looked up): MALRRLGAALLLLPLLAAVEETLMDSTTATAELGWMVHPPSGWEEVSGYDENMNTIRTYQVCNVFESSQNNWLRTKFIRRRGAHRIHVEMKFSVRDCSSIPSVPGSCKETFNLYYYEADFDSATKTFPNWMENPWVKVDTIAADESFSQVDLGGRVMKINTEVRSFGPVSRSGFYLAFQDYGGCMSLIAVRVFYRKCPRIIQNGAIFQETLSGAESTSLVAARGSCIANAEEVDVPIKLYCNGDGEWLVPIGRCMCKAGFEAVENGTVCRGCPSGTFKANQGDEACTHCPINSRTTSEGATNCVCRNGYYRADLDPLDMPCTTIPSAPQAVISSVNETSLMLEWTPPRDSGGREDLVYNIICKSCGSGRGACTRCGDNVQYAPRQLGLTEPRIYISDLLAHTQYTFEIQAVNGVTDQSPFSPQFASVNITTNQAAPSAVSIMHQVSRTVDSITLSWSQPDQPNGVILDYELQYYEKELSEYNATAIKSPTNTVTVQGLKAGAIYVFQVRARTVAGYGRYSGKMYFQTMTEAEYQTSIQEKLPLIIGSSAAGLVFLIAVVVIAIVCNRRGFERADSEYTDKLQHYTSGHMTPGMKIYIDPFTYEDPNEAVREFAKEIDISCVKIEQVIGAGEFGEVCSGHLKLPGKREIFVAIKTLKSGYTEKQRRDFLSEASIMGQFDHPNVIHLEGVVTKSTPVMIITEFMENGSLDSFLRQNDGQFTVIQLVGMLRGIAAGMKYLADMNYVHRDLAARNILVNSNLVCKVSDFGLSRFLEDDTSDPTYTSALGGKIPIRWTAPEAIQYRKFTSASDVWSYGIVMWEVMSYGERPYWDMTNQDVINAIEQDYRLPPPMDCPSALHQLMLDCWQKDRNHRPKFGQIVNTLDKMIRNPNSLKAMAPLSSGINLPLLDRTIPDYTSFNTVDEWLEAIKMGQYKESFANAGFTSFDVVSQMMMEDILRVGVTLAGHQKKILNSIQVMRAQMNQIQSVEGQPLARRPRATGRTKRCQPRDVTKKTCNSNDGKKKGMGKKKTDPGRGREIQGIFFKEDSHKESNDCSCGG

Sequence	phosphorylation enrichment (AncSZ)	phosphorylation enrichment (EPHB1)	phosphorylation enrichment (EPHB2)	phosphorylation enrichment (FGFR1)	phosphorylation enrichment (FGFR3)	phosphorylation enrichment (Fer (mouse))	phosphorylation enrichment (Fes)	phosphorylation enrichment (Fyn)	phosphorylation enrichment (Hck)	phosphorylation enrichment (Jak2)	phosphorylation enrichment (MERTK)	phosphorylation enrichment (c-Abl (mouse))	phosphorylation enrichment (c-Src)	SH2 binding enrichment (Grb2 SH2)	SH2 binding enrichment (SHP2-C SH2)	SH2 binding enrichment (c-Src SH2)
SSQHRYSTPHT [RAF1_Y232_A237T]	0.45	0.343	0.37	0.352	0.369	0.425	0.477	0.348	0.312	0.487	0.405	0.448	0.423	0.813	0.876	3.04
SSREGYVRHHN [FAM83B_Y433_S435R]	0.482	0.309	0.445	0.416	0.473	0.501	0.435	0.377	0.387	0.672	0.409	0.451	0.38	0.956	0.573	0.592
SSSGAYGGGYG [KRT19_Y61]	0.454	0.365	0.403	0.353	0.367	0.364	0.526	0.359	0.434	0.346	0.34	0.386	0.377	0.861	0.639	0.506
SSTASYFEAPG [RFX2_Y108]	0.789	0.445	0.487	4.92	3.47	0.378	0.802	0.442	0.433	0.968	0.449	0.531	0.432	0.862	0.454	0.567
SSVKPYRVYCD [FGB_Y266]	0.659	0.449	0.564	0.463	0.516	0.42	0.791	0.464	0.442	0.657	0.401	0.52	0.519	1.07	0.94	1.29
STEPQYQPGEN [SRC_Y530]	0.825	0.516	0.566	0.478	0.476	0.392	0.817	0.383	0.499	0.681	0.356	0.564	0.38	0.814	0.712	0.558
STSKTYVISQT [RBBP6_Y87_R91Q]	0.591	0.391	0.418	0.431	0.429	0.328	0.694	0.446	0.372	0.559	0.44	0.615	0.466	0.827	0.578	0.418
STTIHYNFMCN [TP53_Y234_C229S_YF]	1	0.628	0.605	0.523	0.797	0.494	1.19	0.493	0.504	0.998	0.5	0.753	0.463	0.788	0.902	0.64
